Patent US20200102347A1 (AUCTUS BIOLOGIES, published 2020)
No end group written: not given here. *: point of attachment. RhodamineB = CCN(CC)c1ccc2c(-c3ccccc3C(=O)*)c3ccc(=[N+](CC)CC)cc-3oc2c1

B2: NativeRPtag(large)_with_Tags_and_Cys (other)
chain: MGSSCHHHHHHSQDPNSSSMKEGKTIGLVISTLNNPFFVTLKNGAEEKAKELGYKIIVEDSQNDSSKELSNVEDLIQQKVDVLLINPVDSDAVVTAIKEANSKNIPVITIDRSANGGDVVSHIASDNVKGGEMAAEFIAKALKGKGNVVELEGIPGASAARDRGKGFDEAIAKYPDIKIVAKQAADFDRSKGLSVMENILQAQPKIDAVFAQNDEMALGAIKAIEAANRQGIIVVGFDGTEDALKAIKEGKMAATIAQQPALMGSLGVEMADKYLK
notes: Unlabeled in anisotropy assays; coupled through the engineered N-terminal Cys to SulfoLink agarose or maleimide plates in column, pull-down and ELISA assays
B3: RP-Tag Small (Sequence 3: SEQ ID NO:13 with a glycine serine tail) (peptide)
peptide: RhodamineB-GEKIPNFIPAELKLITKENVQGS
modifications: also: N-terminal label: Rhodamine B / Rhodamine 6B
notes: also called RP-small peptide

What was measured:
[1] = biological target: T1, NativeRPtag(large)_with_Tags_and_Cys (Thermoanaerobacter tengcongensis); assay: fluorescence anisotropy; KCl (3M)
T1 chain: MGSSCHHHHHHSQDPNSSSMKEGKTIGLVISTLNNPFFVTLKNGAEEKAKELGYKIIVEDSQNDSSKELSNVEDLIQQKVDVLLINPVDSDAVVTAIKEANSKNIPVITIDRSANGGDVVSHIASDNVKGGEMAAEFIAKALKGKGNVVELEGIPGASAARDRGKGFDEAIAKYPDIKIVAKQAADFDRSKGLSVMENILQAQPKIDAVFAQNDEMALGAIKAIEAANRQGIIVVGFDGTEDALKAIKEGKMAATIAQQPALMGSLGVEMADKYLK

[2] = biological target: T1, NativeRPtag(large)_with_Tags_and_Cys …; assay: fluorescence anisotropy; PG (50%)
[3] = biological target: T1, NativeRPtag(large)_with_Tags_and_Cys …; assay: fluorescence anisotropy; BME (10%)
[4] = biological target: T1, NativeRPtag(large)_with_Tags_and_Cys …; assay: fluorescence anisotropy; NaCl (3M)
[5] = biological target: T1, NativeRPtag(large)_with_Tags_and_Cys …; assay: pull-down with RPtag(large) resin
[6] = biological target: T1, NativeRPtag(large)_with_Tags_and_Cys …; assay: fluorescence anisotropy; MgCl2 (3M)
[7] = biological target: T1, NativeRPtag(large)_with_Tags_and_Cys …; assay: fluorescence anisotropy; NH4SO4 (3M)
[8] = biological target: T1, NativeRPtag(large)_with_Tags_and_Cys …; assay: fluorescence anisotropy; ribose (3M)
[9] = biological target: T1, NativeRPtag(large)_with_Tags_and_Cys …; assay: fluorescence anisotropy; DTT (100 mM)
[10] = biological target: T1, NativeRPtag(large)_with_Tags_and_Cys …; assay: fluorescence anisotropy; Tween20 (2%)
[11] = biological target: T1, NativeRPtag(large)_with_Tags_and_Cys …; assay: fluorescence anisotropy; MnSO4 (10 mM)
[12] = biological target: T1, NativeRPtag(large)_with_Tags_and_Cys …; assay: fluorescence anisotropy; acetone (20%)
[13] = biological target: T1, NativeRPtag(large)_with_Tags_and_Cys …; assay: fluorescence anisotropy; sorbitol (3M)
[14] = biological target: T1, NativeRPtag(large)_with_Tags_and_Cys …; assay: fluorescence anisotropy; NiCl2 (100 mM)
[15] = biological target: T1, NativeRPtag(large)_with_Tags_and_Cys …; assay: fluorescence anisotropy; glycerol (20%)
[16] = biological target: T1, NativeRPtag(large)_with_Tags_and_Cys …; assay: fluorescence anisotropy; TritonX-100 (2%)
[17] = biological target: T1, NativeRPtag(large)_with_Tags_and_Cys …; assay: fluorescence anisotropy; DMSO (20%); DMSO (20%)
[18] = biological target: T1, NativeRPtag(large)_with_Tags_and_Cys …; assay: fluorescence anisotropy; EtOH (20%); EtOH (20%)
[19] = biological target: T1, NativeRPtag(large)_with_Tags_and_Cys …; assay: fluorescence anisotropy; MeOH (20%); MeOH (20%)
[20] = biological target: T1, NativeRPtag(large)_with_Tags_and_Cys …; assay: fluorescence anisotropy, buffer additive screen
[21] = biological target: T1, NativeRPtag(large)_with_Tags_and_Cys …; assay: fluorescence anisotropy; 50 mM Tris pH 8.0, 0.005% Tween 20, no additive (Table 2)
[22] = biological target: T1, NativeRPtag(large)_with_Tags_and_Cys …; assay: fluorescence anisotropy; No Additive; No Additive; 100 mM Tris pH 8.0, 0.005% Tween 20 (Table 3)
[23] = biological target: T1, NativeRPtag(large)_with_Tags_and_Cys …; assay: fluorescence anisotropy, competitor chase; 50 mM Tris pH 8.0, 0.005% Tween 20, no additive (Table 2)
native RPtag(small) [24] = biological target: T2, native RPtag(small) (Thermoanaerobacter tengcongensis, N-terminal rhodamine); assay: fluorescence anisotropy
T2 construct: Synthetic peptide
T2 peptide: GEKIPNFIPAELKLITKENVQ
Experimental: (§1) Kd's were calculated according to the equation f=y0+(ymax−y0)*(Ptot+x+Kd−sqrt((Ptot+x+Kd)\hat{ }2−4*Ptot*x))/(2*Ptot), where y0 is the baseline anisotropy, ymax is the maximum anisotropy, Ptot is the fixed concentration of labeled peptide used, x is the variable concentration of protein used, and Kd is the measured Kd.

native RPtag(small) [25] = biological target: T2, native RPtag(small); assay: fluorescence anisotropy, 1 nM rhodamine peptide
Experimental: as §1

[26] = biological target: B3; assay: fluorescence anisotropy, 50 nM Rhodamine B RP-Tag Small
Experimental: (§2) Anisotropy was then measured, and a Kd calculated by fitting the data to the equation f=y₀+(yₘₐₓ−y₀)*(Pₜₒₜ+x+Kd−sqrt((Pₜₒₜ+x+Kd)\hat{ }2-4*Pₜₒₜ*x))/(2*Pₜₒₜ), where y₀ is the baseline anisotropy, yₘₐₓ is the maximum anisotropy, Pₜₒₜ is the fixed concentration of labeled peptide used, x is the variable concentration of protein used, and Kd is the measured Kd.

[27] = biological target: T3, MaturePDGF-β_NterminalPeptide; assay: fluorescence anisotropy, 20 nM rhodamine PDGF-β N-terminal peptide
T3 construct: an N-terminal G was added and is left out of the numbering; also called PDGF-β peptide
T3 peptide: RhodamineB-GSLGSLTIAEPAMIAE
Experimental: (§3) After the incubation, fluorescence anisotropy was measured, and the resultant curves were fit with the equation f=y0+(ymax−y0)*(Ptot+x+Kd−sqrt((Ptot+x+Kd)\hat{ }2−4*Ptot*x))/(2*Ptot), where y0 is the baseline anisotropy, ymax is the maximum anisotropy, Ptot is the fixed concentration of labeled peptide used, x is the variable concentration of protein used, and Kd is the measured Kd. […] Buffer was 50 mM Tris pH 8.0, 0.005% Tween20.

native RPtag(small) [28] = biological target: T2, native RPtag(small); assay: fluorescence anisotropy; 1 nM rhodamine native RPtag (small), RPtag (large) titrated
Experimental: as §1

RPtag(small) Nd2, Cd4 = biological target: T4, RPtag(small) Nd2, Cd4 (Thermoanaerobacter tengcongensis); assay: fluorescence anisotropy; 2 nM rhodamine Nd2Cd4, unlabeled RPtag large variant titrated; bar of Ka = 1/Kd, right axis
T4 peptide: RhodamineB-KIPNFIPAELKLITK
Experimental: as §3

native RPtag(small) [29] = biological target: T2, native RPtag(small); assay: fluorescence anisotropy after a 15 min 121 C autoclave cycle of RP-tag (large); RP-tag (large) autoclaved 15 min at 121 C before the measurement
RPtag(small) l14a = biological target: T5, RPtag(small) l14a (Thermoanaerobacter tengcongensis, N-terminal rhodamine); assay: fluorescence anisotropy; 1 nM rhodamine RPtag small peptide, unlabeled RPtag large titrated, 1 h; 50 mM Tris pH 8.0, 0.005% Tween20; bar of Ka = 1/Kd
T5 peptide: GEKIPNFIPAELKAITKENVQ
Experimental: (§4) Resultant curves were fit with the equation f=y0+(ymax−y0)*(Ptot+x+Kd−sqrt((Ptot+x+Kd)\hat{ }2−4*Ptot*x))/(2*Ptot), where y0 is the baseline anisotropy, ymax is the maximum anisotropy, Ptot is the fixed concentration of labeled peptide used, x is the variable concentration of protein used, and Kd is the measured Kd. […] Buffer was 50 mM Tris pH 8.0, 0.005% tween20.

RPtag(small) l14k = biological target: T6, RPtag(small) l14k (Thermoanaerobacter tengcongensis, N-terminal rhodamine); assay: as above
T6 construct: also called L14K RPtag(small)
T6 peptide: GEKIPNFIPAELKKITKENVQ
Experimental: as §4

[30] = biological target: B3; assay: fluorescence anisotropy; 50 nM N-terminal Rhodamine B RP-Tag Small, RP-Tag Large titrated; 50 mM Tris pH 8.0, 150 mM NaCl, 10 mM 2-mercaptoethanol, 0.005% Tween 20
Experimental: as §2

Bovine Serum Albumin = biological target: T7, Bovine Serum Albumin (bovine, UniProt P02769 25-607); assay: fluorescence anisotropy; 50 nM N-terminal Rhodamine B RP-Tag Small, BSA titrated
T7 construct: also called BSA
T7 sequence (P02769 25-607 limits assumed): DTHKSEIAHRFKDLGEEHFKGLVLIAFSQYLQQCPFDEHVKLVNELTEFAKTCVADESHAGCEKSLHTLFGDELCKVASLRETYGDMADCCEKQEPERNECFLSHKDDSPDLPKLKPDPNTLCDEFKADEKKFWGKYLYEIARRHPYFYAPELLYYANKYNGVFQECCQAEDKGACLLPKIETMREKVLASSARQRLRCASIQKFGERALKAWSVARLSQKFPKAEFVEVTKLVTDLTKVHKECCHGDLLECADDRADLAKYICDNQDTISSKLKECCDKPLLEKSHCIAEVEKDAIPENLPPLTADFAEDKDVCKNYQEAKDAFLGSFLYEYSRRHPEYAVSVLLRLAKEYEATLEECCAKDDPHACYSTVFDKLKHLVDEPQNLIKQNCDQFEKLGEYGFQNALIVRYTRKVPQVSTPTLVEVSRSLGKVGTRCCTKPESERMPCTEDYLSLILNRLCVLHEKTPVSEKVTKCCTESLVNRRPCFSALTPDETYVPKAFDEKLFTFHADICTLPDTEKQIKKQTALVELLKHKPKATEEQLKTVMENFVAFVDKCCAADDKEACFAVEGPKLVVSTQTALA
Experimental: as §2

[31] = biological target: B2; assay: fluorescence anisotropy
[32] = biological target: B2; assay: calculated from koff and Kd
[33] = biological target: B2; assay: fluorescence anisotropy kinetics
[34] = biological target: B2; assay: fluorescence anisotropy, competitor chase
[35] = biological target: B2; assay: fluorescence anisotropy, association kinetics

B1: RPtag(small) Nd8, Cd4 (peptide)
peptide: PAELKLITK
modifications: not checked
Kd [1]: 0.066 nM | Kd [2]: 4600 nM | Kd [3]: 740 nM | Kd [4]: 0.15 nM | resin binding capacity [5]: 200 nmol/mL | Kd [6]: 240 nM | Kd [7]: 2.8 nM | Kd [8]: 42 nM | Kd [9]: 33 nM | Kd [10]: 45 nM | Kd [11]: 160 nM | Kd [12]: 22 nM | Kd [13]: 16 nM | Kd [14]: 42 nM | Kd [15]: 27 nM | Kd [16]: 180 nM | Kd [17]: 140 nM | Kd [18]: 733 nM | Kd [19]: 34 nM | fold increase of affinity with kosmotropic salts (NaCl, KCl) [20]: > 100 fold | Kd [21]: 14 nM | Kd [22]: 14 nM | koff [23]: > 0.0333 s⁻¹

B2
fold better Kd than anti-6xHis/6xHis (native RPtag(small) [24]): ~30 fold | fold selectivity over BSA (native RPtag(small) [24]): > 50000 fold | Kd (native RPtag(small) [25]): 0.2 nM | Kd [26]: 8 nM | Kd [27]: 7300 nM | EC50 (read off the curve) (native RPtag(small) [28]): ~0.8 nM | binding result (RPtag(small) Nd2, Cd4): binds | Kd (native RPtag(small) [29]): 53 nM | binding result (RPtag(small) l14a): binds | binding result (RPtag(small) l14k): binds | EC50 (read off the curve) [30]: ~30 nM

B3
binding result (Bovine Serum Albumin): no binding

B4: RPtag(small) p5a (peptide)
peptide: RhodamineB-GEKIANFIPAELKLITKENVQ
Kd [31]: 0.23 nM | kon [32]: 1.83e+06 M⁻¹ s⁻¹ | fold increase of kon and koff against native [33]: ~7 fold | koff [34]: 0.0004 s⁻¹ | Keq (S-S*) [35]: 1.8 | kf (S to S*) [35]: 0.093 min⁻¹ | kr (S* to S) [35]: 0.052 min⁻¹
